Experiment [1] addresses T1, recombinant human IL-1 beta (human, UniProt P01584 117-269, biotinylated in the ELISA of Example 2 (R&D systems, cat. no. NFLB0), sites not stated; unlabelled elsewhere). The experiment can be described thus: cell-based or functional assay.
Experiment [2] concerns the target T2, mouse IL-1 beta (mouse, UniProt P10749 118-269).
T2 construct: Bought recombinant protein
T2 sequence (looked up): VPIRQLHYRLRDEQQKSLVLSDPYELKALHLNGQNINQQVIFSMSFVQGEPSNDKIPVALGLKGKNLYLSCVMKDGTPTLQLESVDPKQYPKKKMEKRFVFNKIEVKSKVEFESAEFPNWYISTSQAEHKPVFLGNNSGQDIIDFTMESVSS
The experiment is described as follows: ELISA, IL-1 beta coated at 2 mcg/ml, DLX2295 at 0.1, 0.3 and 1.0 mcg/ml, Protein L-HRP. The procedure:
(§1) Binding to the recombinantly expressed IL-1 beta proteins of the following species was investigated: cynomolgus (Sino Biological Inc., USA, cat. no. 90010-CNAE), rhesus macaque (R&D Systems, USA, cat. no. 1318-RL/CF) and mouse IL-1 beta (BioLegend, cat. no. 575102). […] Briefly, proteins were coated at a concentration of 2 mcg/ml over night at 4° C. on Maxisorp 96-well microplates in PBS pH 7.2. […] The ELISAs were developed with BM Blue POD substrate (Roche Applied Science) and the absorbance was measured at 450 nm.
Background: ELISA stands for enzyme-linked immunosorbent assay.

The target of experiment [3] is T3, rhesus macaque IL-1 beta (rhesus macaque, UniProt P48090 117-269).
T3 construct: Bought recombinant protein
T3 sequence (looked up): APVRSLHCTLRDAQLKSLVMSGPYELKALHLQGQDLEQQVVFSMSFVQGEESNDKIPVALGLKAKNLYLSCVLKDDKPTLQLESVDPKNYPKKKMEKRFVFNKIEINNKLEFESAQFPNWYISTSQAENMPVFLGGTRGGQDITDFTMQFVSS
The experiment is described as above. The procedure:
as §1

Experiment [4] deals with T4, cynomolgus IL-1 beta (cynomolgus, UniProt P79182 117-268).
T4 construct: Bought recombinant protein; also called cymonolgus IL-1 beta
T4 sequence (looked up): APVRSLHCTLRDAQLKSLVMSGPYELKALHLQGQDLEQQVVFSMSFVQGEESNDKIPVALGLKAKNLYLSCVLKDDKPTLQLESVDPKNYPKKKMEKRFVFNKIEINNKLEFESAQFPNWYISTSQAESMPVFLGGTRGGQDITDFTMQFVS
The description is as above. The procedure:
as §1

Experiment [5] has as its target T1, recombinant human IL-1 beta. The experiment can be described thus: ELISA, rhIL-1 beta coated, scFv 10 to 3'000 ng/ml, Protein L-HRP. The procedure: A scFv of irrelevant specificity was used as a control. rhIL-1 beta (Peprotech, cat. no. 200-01B) was coated to NUNC 96-well Maxisorp immunoplates. After blocking scFvs were titrated from 10 to 3′000 ng/ml. Bound scFvs were detected by Protein L-HRP (Sigma-Aldrich, cat. no. P3226), and the ELISA was developed using BM Blue POD substrate (Roche Applied Science, cat. no. 11484281001). For quantification purposes, the absorption was measured at 450 nm using VersaMax microplate reader (Molecular Devices).

Where a chain is given by its changes, count along the chain named.

B1: DLX2295 (scFv)
scFv: DIQMTQSPSTLSASVGDRVTITCRASQDISNYLSWYQQKPGKAPKLLIYYTSKLHSGVPSRFSGSGSGAEFTLTISSLQPEDFATYFCLQGKMLPWTFGQGTKLEIKRGGGGSGGGGSGGGGSGGGGSEVQLVESGGGSVQPGGSLRLSCAFSGFSLSTSGMGVGWIRQAPGKGLEWVSHIWWDGDESYNPSLKGRFTISKDTSRNTVYLQMNSLRAEDTASYFCARNRYDPPWFVDWGQGTTVTVSS
notes: also called anti-IL-1 beta scFv DLX2295
For B1, in experiment [1], the “IC50 of IL-1 beta-induced IL-6 release from human dermal fibroblasts” value (from here on “IC50 of IL-1 beta-induced IL-6 release”) fell in the range of 2 to 5 pM. Further, the binding result in experiment [2], in experiment [3] and in experiment [4] was “binds” in each case.

B2: DLX2296 (scFv)
scFv: B1 scFv with S139L, S222V, T243L
B2: the “IC50 of IL-1 beta-induced IL-6 release” value in experiment [1] is approximately 8 pM.

B3: DLX2260 (scFv)
scFv: EIVMTQSPSTLSASVGDRVIITCRASQDISNYLSWYQQKPGKAPKLLIYYTSKLHSGVPSRFSGSGSGAEFTLTISSLQPDDFATYYCLQGKMLPWTFGQGTKLTVLGGGGGSGGGGSGGGGSGGGGSEVQLVESGGGLVQPGGSLRLSCTASGFSLSTSGMGVGWVRQAPGKGLEWVGHIWWDGDESYNPSLKSRFTISRDTSKNTVYLQMNSLRAEDTAVYYCARNRYDPPWFVDWGQGTLVTVSS
In the case of B3, the “IC50 of IL-1 beta-induced IL-6 release” value in experiment [1] was approximately 100 pM.

B4: DLX2332 (scFv)
scFv: B3 scFv with D81E, Y87F, L139S, T151A, V222S, Y224F, L243T
notes: also called anti-IL-1 beta scFv DLX2332
Regarding B4, the binding result in experiment [5] is “binds”.
